One test addresses HER2 on SK-BR-3 cells (human, UniProt P04626 23-1255). The test is described as follows: cell-based or functional assay.
The target in test [1] is T1, HER2 ECD (human, UniProt P04626 23-652).
T1 construct: extracellular domain; also called ErbB2; HER2/neu
The experiment in a line: SPR (Biacore 8K); antibody captured on anti-human IgG Fc CM5 chip; HER2 ECD 0.625-80 nM as analyte; 1:1 global fit; 25 C. Background: In SPR one partner is held on a chip, and binding of the other changes the refractive index at the surface.

Test [2] addresses T2, HER2 ECD (human, UniProt P04626 23-652).
T2 construct: extracellular domain
The test is described as follows: SPR Biacore, binding to Her2 ECD, 1:1 binding model (global fit); HER-10 expressed from Expi293 cells. The protocol:
(§1) Antibody binding to HER2 was analyzed by Biacore 8K (GE Healthcare) surface plasmon resonance instrument (SPR). All reagents used were from GE Healthcare. HBS-EP+ was used as the sample and running buffer and the interaction was measured at 25° C. […] HER2 ECD (0.625-80 nM, 2-fold dilution) was passed over the captured anti-HER2 antibody at 30 μl/min flow rate, and association and dissociation phases were recorded for 300 and 600 sec, respectively. The sensor chip was regenerated by a 30 sec injection of 3M MgCl₂ at 30 μl/min at the end of each injection cycle. […] The conditioned media was diluted in HBS-EP+ to achieve a capture level that produced a final HER2 binding response of less than 200 RU.
(§2) SK-BR-3 cells were reverse transfected with plasmid DNA using Lipofectamine LTX and PLUS Reagent in fibronectin-coated flasks. The culture supernatant was replaced with serum-free medium (Opti-MEM) one day post-transfection. Three days post-transfection, the culture medium was concentrated using centrifugal concentrators (MilliporeSigma) and analyzed by Biacore SPR binding to Her2 ECD with data fitted to a 1:1 binding model (global fit).

In test [3] the target is T2, HER2 ECD. The experiment in a line: SPR Biacore, binding to Her2 ECD, 1:1 binding model (global fit); HER-10 from concentrated SK-BR-3 culture medium. The protocol: as §1, §2

B1: Ab-HER-78 (bispecific antibody, human IgG1, kappa)
heavy: QVQLVQSGAEVKKPGASVKVSCKASGYSFTGYFINWVREAPGQGLEWMGHISSSYATSTYNQKFQGRVTFTVDTSSSTAYMELSSLRSEDTAVYYCVRSGNYEEYAMDYWGQGTLVTVSSASTKGPSVFPLAPSSKSTSGGTAALGCLVKDYFPEPVTVSWNSGALTSGVHTFPAVLQSSGLYSLSSVVTVPSSSLGTQTYICNVNHKPSNTKVDKRVEPKSCDKTHTCPPCPAPELVGGPSVFLLPPKPKDTLMISRTPEVTCVVVDVSHEDPEVKFNWYVDGVEVHNAKTKPPEEQYNSTLRVVSVLTVLHQDWLNGKEYKCKVSNKALPAPIEKTISKAKGQPREPQVYTLPPSRDELTKNQVSLTCLVKGFYPSDIAVEWESNGQPENNYKTTPLVLDSDGSFFLYSKLTVDKSRWQQGNVFSCSVMHEALHNHYTQKSLSLSPGK
light: not shown
Turning to B1, in the test with HER2 on SK-BR-3 cells, the “Emax (SK-BR-3 cell proliferation, CellTiter-Glo 2.0, five days)” value worked out at 56.5% and the “IC50 (SK-BR-3 cell proliferation, CellTiter-Glo 2.0, five days)” value was found to be 0.08 µg/mL.

B2: HER-10 recombinant (naked) antibody (antibody, human IgG1, kappa, V domains shown)
VH: QVQLQQSGPELVKPGASLKLSCTASGFNIKDTYIHWVKQRPEQGLEWIGRIYPTNGYTRYDPKFQDKATITADTSSNTAYLQVSRLTSEDTAVYYCSRWGGDGFYAMDYWGQGASVTVSS
VL: DIVMTQSHKFMSTSVGDRVSITCKASQDVNTAVAWYQQKPGHSPKLLIYSASFRYTGVPDRFTGSRSGTDFTFTISSVQAEDLAVYYCQQHYTTPPTFGGGTKVEIKR
notes: also called Ab-HER-10
On to B2, for which, in the test with HER2 ECD [1], the Kd (as a rule, the free concentration of one partner at which half of the binding sites on the other are occupied at equilibrium, for simple one-to-one binding) is 1.2 nM; the koff – broadly, the rate constant with which the complex falls apart – amounted to 0.00021 s⁻¹; the kon – broadly, the second-order rate constant of association – was 190000 M⁻¹ s⁻¹.

B3: HER-10 anti-HER2 antibody (Ab-HER-10) (antibody, human IgG1, kappa, V domains shown)
VH: QVQLQQSGPELVKPGASLKLSCTASGFNIKDTYIHWVKQRPEQGLEWIGRIYPTNGYTRYDPKFQDKATITADTSSNTAYLQVSRLTSEDTAVYYCSRWGGDGFYAMDYWGQGASVTVSS
VL: DIVMTQSHKFMSTSVGDRVSITCKASQDVNTAVAWYQQKPGHSPKLLIYSASFRYTGVPDRFTGSRSGTDFTFTISSVQAEDLAVYYCQQHYTTPPTFGGGTKVEIKR
Take B3: the values for the Kd in the test with HER2 ECD [2] and with HER2 ECD [3] were 1.58 nM and 0.96 nM, respectively.

B4: HER-10 vectorized anti-HER2 antibody (antibody, human IgG1, kappa, V domains shown)
VH: QVQLQQSGPELVKPGASLKLSCTASGFNIKDTYIHWVKQRPEQGLEWIGRIYPTNGYTRYDPKFQDKATITADTSSNTAYLQVSRLTSEDTAVYYCSRWGGDGFYAMDYWGQGASVTVSS
VL: DIVMTQSHKFMSTSVGDRVSITCKASQDVNTAVAWYQQKPGHSPKLLIYSASFRYTGVPDRFTGSRSGTDFTFTISSVQAEDLAVYYCQQHYTTPPTFGGGTKVEIKR
notes: also called Ab-HER-10
In the case of B4, in the test with HER2 ECD [1], binding was characterised by a dissociation constant (Kd) of 1.5 nM, the koff was 0.00025 s⁻¹ and the kon is 170000 M⁻¹ s⁻¹.

Source of the values: US20250295809A1 (published 2025).
